Measured values published in US20140079706A1.

Key:
Assay in all cases: cell-based or functional assay
[1] = molecular target: CSF-1R on cynomolgous monocytes (cynomolgous)
[2] = molecular target: human mutant CSF-1R L301S Y969F, full-length, on NIH 3T3 cells (human) (UniProt P07333)
[3] = molecular target: human wildtype CSF-1R (wt CSF-1R), full-length, on cells (human) (UniProt P07333)

Row | % inhibition at 20 µg/ml, mutant CSF-1R cells [2] [%] | Substance | % inhibition (of survival) = (100% - % survival), cynomolgous monocytes, 5 µg/ml antibody [1] [%] | % survival of cynomolgous monocytes at 5 µg/ml antibody (150 ng/ml huCSF-1, CellTiterGlo) [1] [%] | Mutant CSF-1R IC30 (cell viability, CellTiterGlo, 3D spheroids) [2] [µg/mL] | Mutant CSF-1R IC50 (cell viability, CellTiterGlo, 3D spheroids) [2] [µg/mL] | wtCSF-1R IC30 (cell viability, CellTiterGlo, 3D spheroids) [3] [µg/mL] | wtCSF-1R IC50 (cell viability, CellTiterGlo, 3D spheroids) [3] [µg/mL]
1 |  | Anti CSF-1R SC 2-4A5 (Santa Cruz Biotechnology, US) (antibody) | 69 | 31 | 2.56 | 10 | 16.6 | 10
2 | 0 | goat polyclonal anti-CSF-1R antibody ab10676 (abcam) |  |  | > 20 |  | 14.2 | 
